Assay: yeast display, Sf9 membrane polyspecificity reagent, FACS + sequencing; frameworks hold sequencing errors
Procedure, shortened: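 Using colony PCR, genes from sorted yeast display clones were amplified, then sequenced on MiSeq at 2 × 250 and filtered by CDR length. The clones had been stained with 10% biotinylated, detergent-solubilized Sf9 membrane reagent for 1 hour at 4 °C and sorted by FACS into low and high (top ~1%) gates on anti-HA and streptavidin fluorescence. Polyreactivity labels come from the gate of origin.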

Row | Sequence | polyreactivity (PSR sort gate)
1 | QVQLVESGGGLVQAGGSLRLSCAASGGTIAYNAMGWYRQAPGKERELVAAISSSGGRTYYADSVKGRFTISRDNAKNTVYLQMNSLKPEDTAVYFCATPVNNGFDYWGQGTQVTLSS | high polyreactivity
2 | QVQLVESGGGLVQAGGSLSLSCAASGSTFPEYVMGWYRQAPGKERELVAAITRRGGRTYYADSVKGRFTISRDNAKNTVYLQMNSLKPEDTEVYYCAAKSAVVVCMDSWGQGTQVTVSS | high polyreactivity
3 | QVQLVESGGGLVQAGGSLRLSCAASGSNFFYNVMGWYRQAPGKERELVAAITRSGGRTYYADSVKGRFTISRDNAKNTVYLQMNSLKPEDTAVYYCAAALGGKFDYWGQGTQVTVSS | high polyreactivity
4 | QVQLVESGGGLLQAGGSLSLSCAASGGIFYYNAMGRYRQAPRKERELVAANTFSGGSTNYADSVKGRFTISRDNAKNTVYLQMNSLKPEDTAVYYGNARRGYGGGYDYWGQGTQVTVSS | high polyreactivity
5 | QVQLVESGGGLVQAGGSLRLSCAASGFIFSTNAMGWYRQAPGKERELVAAISRRGGNTYYADSVKGRFTISRDNAKNTVYLQMNSLKPEDTAVDYCNAVFRSGGLDYWGQGTQVTVSS | high polyreactivity
6 | QVQLVESGGGLVQAGGSLRLSCAASGSILWDNAMGWYRQAPGKERELVATISVSGGGTYYADSVKGRFTISLDNAKNTVYLQMNSLKPEDTSVYYCNARYGNESQGWEDYWGQGTQVTVSS | low polyreactivity
7 | QVQLVESGGGLVQAGGRLRLSCAASGITFTFNAMGWYRQAPGKERELVAAITWSGGSTIYADSVKGRFTFSRDNAKNTVYLQMNSQKPEDTAVYNCARDTELYVRWLDYWGQGSQVTVSS | low polyreactivity
8 | QVQLVESGGGLVQAGGSHRLSCAASARILYRNAMGRYRQAPGKERELVAAITTRGTSTYYADSVKGRFTISRDNANNTVYLQMNSLKPEDTAVYYCNKVTRDLTQGYDYWGQGTQVTVSS | high polyreactivity
9 | QVQLVESGGGLVQAGGSLRLSCAASGITIYAYAMGWSRQAPGKERELVAAINWSGGRTFYADSVKGRFTISRDNAKNTDYLQMNSLKPEDTAVYYCAAAYTRSYSWARGYDYWGQGTQVTVSS | high polyreactivity
10 | QVQLVESGGGLVQAGGRLRLSCAASGRIFGVYAMGWYRQAPGKEREFVASITRGGGRTYYADSVKGRFTISRDNAKNTVYLQMNSLKPEDTAVYYCNAVVNSYPYYYWGQGTQVTVSS | high polyreactivity
11 | QVQLVESGGGLVQAGGSLRLSCAASGFIIQGNALGWYRQAPGTERELVAAISSSVSTYYADSVKGRFTISRDNAKNTVYLQMNSLKPEDNAVYDCNAGFPLSLWLGDYWGQGTLVTVSS | low polyreactivity
12 | QVQLVESGGGLVQAGGTLRLSCAASGRIFQAYAMGWYRQAPGKERELVASISYRGGITYYADSVKGRFTISRDNAKNTVYLQMNSLKPEDTAVYYCAARSWYFSWEMYYWGQGTQVTVSS | high polyreactivity
13 | QVQLVESGGGLVQAGGSLRLSCAASGNIFWGNAMGWYRQAPGKERELVATITTGGSTNYADSVKGRFTISRDNAKNTVYLQMNSLKPEDTAVYYCNKRTTTASHLTSDYWGQGTQVTVSS | low polyreactivity
14 | QVQLHESGGGLVQAGGGLRLSCASSGSISSTGFMGWYRQAPGKEREPVAAIAPGTTTYYADSVKGRFTIRRDNAKNTVYLQMNSLRPEDTAVYYCAVFTDNRVAFLYWGQGTQVTVSS | low polyreactivity
15 | QVHLVESGGGLVQAGGSLRLSCAASGSTCYWYTMGWYRKAPGKERELVARISSSGSTNYADSVKGRFTISRDNEKNTVYLLMNILKAEDTAVYYCNIDWFYRGYDYWGQGTQVTVSS | high polyreactivity
16 | HVQLVESGGGLVQAGGILRLSCAASGSTFVKYAMGWYRQATGKERELVAAISSRGGRTYYADSVKGRFTISRDNAKNTVYLQMNSLKPEDTAVYYCNKGTRLDGEYDYWGQGTQVTVSS | high polyreactivity

Row | Sequence | polyreactivity (PSR sort gate)
17 | QVQLEESGGGLVQAGGSLRFSCAASGITFDQNAMGWYRQAPGKEREFVAAISVSGGRTYYADSVKGPFTISRDNAKNSVYLQLNSLKPDDSAVYYCNADYAFYYPLEPLDVGYDYWGQGTQVTVSS | high polyreactivity
18 | QVQLVESGGGLVQAGGSLRLSCAASGSIFAYNAMGWYRQAPGKERELVAAISAGGRTKYADSVKGRFTISRDNAKNTVYLQMNCLKPEDTAVYYCAAESYTGKYSWVWKWYDYWGQGTQVTVSS | low polyreactivity
19 | QVQLVESGGGLVQAGGSLRLSCAASGFIFRQYAMGWYRQAPGKERELVAAISRSGGSTYYADSVKGRFTISRDNAKNTVYLQMNSLKPEDTAVYYCAVRYNQWYLNFGRYDYWGQGTQVTVSS | high polyreactivity
20 | QVQLVESGGGLVQAGGSLRLSCAASGSIIWRNAMGWYRQAPGKERELVAAITWSRGSTFYADSVKGRFTISRDNAKNTVYLQMNSLKAEDTAVYYCAAYGGRRFDYWGQGTQVTVSS | low polyreactivity
21 | QVQLVESGGGLVQAGGSLRLSCAASGRIFVRYAMGWYRQAPGKEREFVAAINYSGGSTYADSVKGRFTISRDNAKNSVFLQMIRLKPEDTAVYYCAADYQGITSSDPYDYWGQGTQVTVSS | low polyreactivity
22 | QVQLVESGGGLVQAGGSLRLSCAASGIIFYVNAMGWYRQAPGKERDLVAAITFGGDSTYYADSVKGRFTISRDNAMNTVSVQMNSLKPEDTAVYYCATDGDPAYPEMEYLGQGTQVTVSS | low polyreactivity
23 | QVQLVESGGGLVQAGGSLRLSCSASGSNFYTNAMGWYRQAPGKERELVAVITASGGSTYYADSVKGRFTISRDYAKNTVYLLMNSLKPEDTAVYYCASDPVFNYDYWGQGTQVTVSS | low polyreactivity
24 | QVQLVESGGGLVQAGGSLRLSCAASGFTFTGYTMGWYRQAPGKQRELVATISGSGGNTYYADSVKGRFTISRDNAKNTVYLQMNSLKPEDTAVYYCARRRSGPRVLYYYWGQGTQVTVSS | low polyreactivity
25 | QVQLVESGGGLVQAGGSLRLSCAASGSIFSQNAIGWYRQAPGKEMELVAAISSSGTRTYYADSVKGRFTISRDHAKNTVYLQMNSLKPEDTAVYYCNKVLFRPRFFVRSDYWGQGTQVSVSS | high polyreactivity
26 | QVQLVESGGGLVQAGGSLRLSCAASGRIFRWYAMGWYRQAPGKERELVAAISSSGGSTYYADSVKGRFTISRDNAKINVYLQMKSLKPEDTAVYYCNAEAVAYWSVPYNYWGQGTQVTVSS | high polyreactivity
27 | QVQIVESGGALYQAGGSLRLICAASGSTFSQYAMGWYRQEPGKERELLPTINSGGSTNYADSVKGRFTISRDNAMNTVYLQMNSLKPEETAVYYCAAREDLYLYYNGQRVQYDYWGQGTQVTVSS | low polyreactivity
28 | QVQLVESGGGLVQAGGSLRLSCAASGSIFWYYAMGWYRQAPGKERELVAAIRRGGSTTYADSVKGRFTISRDNAKNTVYLQMNSLKPEDTAVYYCAAEPYYWYRGDYWGQGTQVTVSS | high polyreactivity
29 | QVQLVESGGGLVQAGGSLRLSCAASGLIFPSYAMGWYRQAPGKERELVAAITFSGSDTNYADSVKGRFTISRDNAKNTVYLQMNSLKPEDTAVYYCAAAYFDFWGWLHDYWGQGTQVTVSS | low polyreactivity
30 | QVQLVESGGGLVQAGGSLRLSCAASGFTIGYYAMGWYRQAPGKERELDAAISSGGGSTKYADSVKGRFTISRDNAKNTVYLQMNSLKPVDTAVYYFAKSRLVRGRSSYDYWGQGSQVTVSS | high polyreactivity
31 | QVQILESGGGLVQAGVSLRLSCAPSGSTFSRNAMAWYRQAPGKERELVAAISSSGGRTYYAESVKVRFTISRDNAKNTVYLQMNSLTPEDTAVYYCAAAFSLGMYWGQGTLVTVSS | high polyreactivity
32 | QVQLVESGGGLVQAGGSLRLSCAASGRIFSTYTMGWYRQAPGKEMELVAAIRANGGSTYYADSVKGRFTISRDNAKNTVYLQMNSLKPEDTAVYYCAALYRRYPYHYDSWGQGTQVTVSS | high polyreactivity

Source: the nanobody polyreactivity screen of Harvey et al. (2022)
